The series can be described thus: protein stability index of a GFP-peptide fusion (GPS, HEK-293T) (PSI 1-6); higher = more stable. Conditions: c terminus: a fixed tail appended.

± gives the standard deviation.
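Further: 24-mer peptide tiles fused after GFP, lentivirally expressed, FACS-sorted into six equal bins by GFP/DsRed ratio, decoded by Illumina sequencing, PSI is the read-weighted mean bin number.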

For the sequence VLFTSDACGLSDVAHVESLQEKSQ [NR2F2], the protein stability index runs as follows: (treatment: DMSO) 3.93 ± 0.26; (treatment: MLN4924 1 uM, 8 h) 4.04 ± 0.28.
Consider VLIFKSILFLPCLRKKILKIRHGW [STEAP1], for which the protein stability index was determined as 2.16 ± 0.51 (treatment: DMSO) and 2.38 ± 0.25 (treatment: MLN4924 1 uM, 8 h).
The sequence VLLKKDVDAAYANKVELQAKVESM [KRT71] registered a protein stability index (treatment: DMSO) of 3.63 ± 0.36 and a protein stability index (treatment: MLN4924 1 uM, 8 h) of 3.65 ± 0.36.
For the sequence VLSLLSLEPAQRPPLSHIMAQPLC [NEK8], the protein stability index runs as follows: (treatment: DMSO) 2.17 ± 0.15; (treatment: MLN4924 1 uM, 8 h) 2.3 ± 0.099.
As for VNAVLTQIDQIKRHSNVVILTTSN [TRIP13], the protein stability index turned out to be 1.92 ± 0.46 (treatment: DMSO) and 1.95 ± 0.24 (treatment: MLN4924 1 uM, 8 h).
As to VPQPARMPYISDKHPRQTLEVINL [KLHL20], the protein stability index is 2.88 ± 0.2 (treatment: DMSO) and 3.2 ± 0.31 (treatment: MLN4924 1 uM, 8 h).
On to VQYLQHLGTENLHLIFSYSVWVLR [VPS39], for which the protein stability index was 3.23 ± 0.39 (treatment: DMSO) and 2.96 ± 0.41 (treatment: MLN4924 1 uM, 8 h).
Take VRGLYDFYLPREELWIYNMETGRW [KLHDC2]: the protein stability index came out at 2.57 ± 0.39 (treatment: DMSO) and 2.24 ± 0.48 (treatment: MLN4924 1 uM, 8 h).
VRLQSIHTMRKISNNITLREDQLD [INTS4]: the protein stability index came out at 3.2 ± 0.055 (treatment: DMSO) and 3.3 ± 0.36 (treatment: MLN4924 1 uM, 8 h).
Taken in the same sequence, the figures for VRSGAWHFSFNVKFYPPDPAQLSE [EPB41L3] were 1.98 ± 0.61 and 2.53 ± 0.18.
Consider VRSIQPEEKERIGQFVFARDAKAA [AASDHPPT], for which the protein stability index stood at 4.13 ± 0.31 (treatment: DMSO) and 4.39 ± 0.27 (treatment: MLN4924 1 uM, 8 h).
In the same order, the values of VRTTRGKRKRVDVEESEASSSVSI [LMNB1] are 5.13 ± 0.17 and 5.09 ± 0.44.
As for VSRGGHGQQDLFRVLKAYTLYRPE [TBC1D10A], the protein stability index came out at 2.06 ± 0.17 (treatment: DMSO) and 2.12 ± 0.36 (treatment: MLN4924 1 uM, 8 h).
Taken in the same sequence, the figures for VSSLISEKTNGATPLLMAARYGHL [FEM1C] were 2.28 ± 0.17 and 2.52 ± 0.28.
Consider VSSVTQVEVDENAYRCGSGMQMAE [NET1], for which the protein stability index was found to be 4.2 ± 0.3 (treatment: DMSO) and 4.42 ± 0.11 (treatment: MLN4924 1 uM, 8 h).
Turning to VTASPPTDLIWKNQNSWGTGEDVK [LMNB1], the protein stability index was determined as 4.36 ± 0.26 (treatment: DMSO) and 4.37 ± 0.24 (treatment: MLN4924 1 uM, 8 h).
Take VVCQPNEFIMPDSAVVGDVLVLTK [SEPHS2]: the protein stability index reads like this: (treatment: DMSO) 2.35 ± 0.19; (treatment: MLN4924 1 uM, 8 h) 2.56 ± 0.36.
Taken in the same sequence, the figures for VVCVLLNLAGFILGCQGAQFVSSV [FAM189A2] were 3.35 ± 0.99 and 2.21 ± 0.42.
As to VVEATHMCMVMRGVQKMNSKTVTS [GCH1], the protein stability index (treatment: DMSO) was determined as 2.82 ± 0.31 and the protein stability index (treatment: MLN4924 1 uM, 8 h) turned out to be 3 ± 0.45.
In the case of VVPARLKRASAPTFDNDYSLSELL [RIPK4], the protein stability index is, setting by setting: (treatment: DMSO) 2.69 ± 0.17; (treatment: MLN4924 1 uM, 8 h) 2.8 ± 0.42.
In the same order, the values of VVRICCIRSFGHFIARLQGSILQF [SMG5] are 2.57 ± 0.37 and 2.66 ± 0.57.
Taken in the same sequence, the figures for WCDGCKNHIGMGVRYNAEKKKVGN [YJU2B] were 3.67 ± 0.34 and 3.65 ± 0.32.
Regarding WDPHNGDILMEFGHLFPPPTPIFA [WSB1], the protein stability index is, setting by setting: (treatment: DMSO) 2.38 ± 0.31; (treatment: MLN4924 1 uM, 8 h) 2.21 ± 0.27.
For WLSDWVTSYKVMVSNDSHTWVTVK [CPXM2], the protein stability index (treatment: DMSO) was determined as 2.67 ± 1.5 and the protein stability index (treatment: MLN4924 1 uM, 8 h) was 2.56 ± 0.2.
As to WMIEEKATITSRGSSLSGSLCSLL [LURAP1L], the protein stability index runs as follows: (treatment: DMSO) 2.28 ± 0.17; (treatment: MLN4924 1 uM, 8 h) 2.47 ± 0.2.
As to WMKHNVADSQITTIGNLVPQKTYS [PTPRD], the protein stability index is, setting by setting: (treatment: DMSO) 3.29 ± 0.55; (treatment: MLN4924 1 uM, 8 h) 3.17 ± 0.29.
For the sequence WQRGLNTPEDSDPDHFDTAILFTR [ADAMTS4], the protein stability index worked out at 3.54 ± 0.25 (treatment: DMSO) and 3.5 ± 0.46 (treatment: MLN4924 1 uM, 8 h).
Regarding WQRQMDQPQDRNQALGTHRPVNKL [RASAL3], the protein stability index (treatment: DMSO) is 4.39 ± 0.35 and the protein stability index (treatment: MLN4924 1 uM, 8 h) turned out to be 4.49 ± 0.14.
In the same order, the values of WWNHMHFQHHAKPNCFRKDPDINM [FADS1] are 2.17 ± 0.42 and 2.26 ± 0.49.
As to YCFCGWIVLGPYHVKFRSLSMVSE [MCOLN1], the protein stability index reads like this: (treatment: DMSO) 2.85 ± 1.1; (treatment: MLN4924 1 uM, 8 h) 3.1 ± 1.3.
On to YCKPTRLDLLLDMPPVSYDVQLLH [SPSB1], for which the protein stability index reads like this: (treatment: DMSO) 2.2 ± 0.23; (treatment: MLN4924 1 uM, 8 h) 2.14 ± 0.33.
Taken in the same sequence, the figures for YDVAMNRAKDLVELDPEVEGTKPS [GOLPH3L] were 5.54 ± 0.2 and 5.603 ± 0.052.
In the same order, the values of YDVKYLMKSCKNLKGGLQEVAEQL [CNOT7] are 2.61 ± 0.43 and 2.98 ± 0.33.
For the sequence YECGVCAKKFMWRDSFMRHRGHCE [ZBTB22], the protein stability index stood at 5 ± 0.16 (treatment: DMSO) and 4.99 ± 0.17 (treatment: MLN4924 1 uM, 8 h).
Take YEKTPFDQLAFIEELFSLMVVNRL [EID1]: the protein stability index reads like this: (treatment: DMSO) 2.68 ± 0.36; (treatment: MLN4924 1 uM, 8 h) 3.01 ± 0.43.
On to YFSLYCLHQETQLIHVYLPLTSHI [SNX8], for which the protein stability index by setting is: (treatment: DMSO) 2.95 ± 0.35; (treatment: MLN4924 1 uM, 8 h) 2.78 ± 0.32.

Source of the values: the supplement of paper PMC10567573.
